Assay results published in paper PMC8761493, “New insights into the phosphorylation of the threonine motif of the β1 integrin cytoplasmic domain” (Life Science Alliance, 2022).
Non-standard residues stand in square brackets, D forms with d. No end group written: not given here. pT = C[C@@H](OP(=O)(O)O)[C@H](N)C(=O)O

Tests used:
[1] = test system: anti-β1-pTpT integrin antibody (Abcam); assay: Integrin peptide ELISA (direct ELISA, immobilized tail peptides); format: binding; conditions: antibody dilution range 1:500 to 1:10,000 (Fig 1E)
Description: (§1) The plates were blocked with 200 μl PBS containing 3% BSA for 1 h at room temperature and then washed thrice with 200 μl PBS. Different dilutions of the anti–β1-pTpT antibodies (Thermo Fisher Scientific and Abcam) in 100 μl PBS supplemented with 3% BSA were incubated for 2 h at room temperature. After washing thrice with 200 μl PBS, 100 μl of anti-rabbit-IgG HRP-conjugate was added (1:10,000 in PBS supplemented with 3% BS) and incubated for 1 h at room temperature. The plates were washed thrice with 200 μl PBS, developed with 100 μl of ABTS substrate solution (1-Step ABTS; Thermo Fisher Scientific) before measuring absorbance at λ = 405 nm in a SpectraMax ABS Plus plate reader (Molecular Devices).

[2] = test system: anti-β1-pTpT integrin antibody (Thermo Fisher Scientific); assay: as above; format: binding; conditions: antibody dilution range 1:500 to 1:10,000 (Fig 1D)
Description: as §1

kindlin-2 = target: T1, kindlin-2 (Homo sapiens, UniProt Q96AC1); assay: Microscale thermophoresis (MST) affinity measurement; format: binding; conditions: 200 nM Atto488-labeled β1-tail peptide, 20 mM Tris pH 7.5, 200 mM NaCl, 1 mM TCEP, 0.05% Tween-20
T1 sequence (Q96AC1 1-680): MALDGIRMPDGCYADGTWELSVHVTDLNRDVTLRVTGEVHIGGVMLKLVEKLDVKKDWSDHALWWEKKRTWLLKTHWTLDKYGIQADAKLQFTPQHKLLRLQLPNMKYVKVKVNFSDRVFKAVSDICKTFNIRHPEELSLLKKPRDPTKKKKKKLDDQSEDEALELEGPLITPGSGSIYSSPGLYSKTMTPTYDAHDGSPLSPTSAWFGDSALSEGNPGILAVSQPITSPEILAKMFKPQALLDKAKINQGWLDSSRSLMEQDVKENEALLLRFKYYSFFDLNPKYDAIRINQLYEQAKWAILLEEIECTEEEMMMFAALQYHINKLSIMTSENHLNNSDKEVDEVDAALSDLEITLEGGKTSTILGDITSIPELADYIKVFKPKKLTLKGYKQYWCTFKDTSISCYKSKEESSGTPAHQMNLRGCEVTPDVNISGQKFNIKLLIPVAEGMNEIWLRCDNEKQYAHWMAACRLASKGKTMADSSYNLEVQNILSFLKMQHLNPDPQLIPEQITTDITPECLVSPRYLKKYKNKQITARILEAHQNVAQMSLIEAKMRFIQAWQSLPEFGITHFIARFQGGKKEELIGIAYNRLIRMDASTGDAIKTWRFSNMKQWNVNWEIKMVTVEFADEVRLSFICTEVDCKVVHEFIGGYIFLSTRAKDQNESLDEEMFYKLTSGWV

endogenous SNX17 = assay: Peptide pull-down from whole cell lysate, Western blot; format: binding; conditions: Western blot, n = 5
Description: (§2) Before use, peptides were immobilized on 25 μl Dynabeads MyOne Streptavidin C1 (10 mg/ml; Invitrogen) in Mammalian Protein Extraction Reagent (Thermo Fisher Scientific) containing protease inhibitors (cOmplete; Roche) and phosphatase inhibitors (Phosphatase Inhibitor Cocktail 2 and 3; Sigma-Aldrich) for 3 h at 4°C. Cell lysates were prepared with MPER containing protease and phosphatase inhibitors and 0.5 mg of supernatant was incubated with the peptide-coated beads at 4°C under constant rotation. For pull-downs with recombinant proteins, synthetic β1 integrin tail peptides were immobilized on 25 μl Dynabeads MyOne Streptavidin C1 (10 mg/ml; Invitrogen) for 3 h at 4°C, incubated with 2% BSA in Mammalian Protein Extraction Reagent (Thermo Scientific Scientific) for 30 min at 4°C to block unspecific binding before adding kindlin-2 or THD (conc 2.5 and 8.5 nM, respectively) and further incubation on a rotator for 2 h at 4°C. After washing the beads three times with lysis buffer, the proteins bound to the beads were eluted using Laemmli buffer, separated on a 10% SDS–PAGE, and analyzed by Western blotting.

endogenous kindlin-2 = assay: as above; format: binding; conditions: Western blot, n = 5
Description: as §2

FNIII7-10^RGD = assay: AFM-based single-cell force spectroscopy (binding probability); single fibroblast on a concanavalin A-coated cantilever brought onto glass coated with 50 μg/ml FN fragment; contact force 200 pN, contact time ~300 ms, 37°C, 1 μM cilengitide
FNIII7-10^ΔRGD = assay: as above
[3] = target: talin-1 head domain (THD) (UniProt P26039); assay: Microscale thermophoresis (MST) affinity measurement; format: binding; conditions: 200 nM Atto488-labeled β1-tail peptide, 20 mM Tris pH 7.5, 200 mM NaCl, 1 mM TCEP, 0.05% Tween-20
Description: All MST measurements were performed on a Monolith NT.115 red-blue (Nanotemper) using premium-coated capillaries to reduce non-specific interaction of the proteins with the glass surface. Both interaction partners (ligand and receptor) were transferred into MST buffer (20 mM Tris, pH 7.5, 200 mM sodium chloride, 1 mM tris(2-carboxyethyl)phosphine [TCEP], 0.05% Tween-20) to avoid artifacts derived from buffer mismatches. […] The measurements were carried out at 20% light emitting diode power and 20% and 40% MST power. Data were analyzed using the MO Affinity Analysis Software (Nanotemper).

[4] = target: β1-pTpT peptide, N-terminally desthiobiotinylated; assay: pull-down; desthiobiotinylated β1-tail peptides on Dynabeads MyOne Streptavidin C1; 0.5 mg whole cell lysate in MPER with protease and phosphatase inhibitors, 4°C; Western blot and densitometry
[5] = target: T2, recombinant talin-1 head domain (THD); assay: MST
T2 chain: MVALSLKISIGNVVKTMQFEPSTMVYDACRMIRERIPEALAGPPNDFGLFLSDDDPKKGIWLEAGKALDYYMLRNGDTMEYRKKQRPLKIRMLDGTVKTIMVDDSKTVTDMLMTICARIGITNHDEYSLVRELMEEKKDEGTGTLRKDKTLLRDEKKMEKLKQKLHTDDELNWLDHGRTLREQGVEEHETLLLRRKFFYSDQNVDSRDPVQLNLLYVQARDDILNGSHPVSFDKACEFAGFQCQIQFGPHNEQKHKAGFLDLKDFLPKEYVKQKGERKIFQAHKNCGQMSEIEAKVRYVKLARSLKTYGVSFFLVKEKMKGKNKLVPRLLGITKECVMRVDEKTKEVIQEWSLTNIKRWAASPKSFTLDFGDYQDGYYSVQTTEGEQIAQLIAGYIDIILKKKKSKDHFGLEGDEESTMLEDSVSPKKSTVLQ

recombinant kindlin-2 = target: T3, recombinant kindlin-2 (UniProt Q8CIB5 1-680); assay: MST
T3 chain: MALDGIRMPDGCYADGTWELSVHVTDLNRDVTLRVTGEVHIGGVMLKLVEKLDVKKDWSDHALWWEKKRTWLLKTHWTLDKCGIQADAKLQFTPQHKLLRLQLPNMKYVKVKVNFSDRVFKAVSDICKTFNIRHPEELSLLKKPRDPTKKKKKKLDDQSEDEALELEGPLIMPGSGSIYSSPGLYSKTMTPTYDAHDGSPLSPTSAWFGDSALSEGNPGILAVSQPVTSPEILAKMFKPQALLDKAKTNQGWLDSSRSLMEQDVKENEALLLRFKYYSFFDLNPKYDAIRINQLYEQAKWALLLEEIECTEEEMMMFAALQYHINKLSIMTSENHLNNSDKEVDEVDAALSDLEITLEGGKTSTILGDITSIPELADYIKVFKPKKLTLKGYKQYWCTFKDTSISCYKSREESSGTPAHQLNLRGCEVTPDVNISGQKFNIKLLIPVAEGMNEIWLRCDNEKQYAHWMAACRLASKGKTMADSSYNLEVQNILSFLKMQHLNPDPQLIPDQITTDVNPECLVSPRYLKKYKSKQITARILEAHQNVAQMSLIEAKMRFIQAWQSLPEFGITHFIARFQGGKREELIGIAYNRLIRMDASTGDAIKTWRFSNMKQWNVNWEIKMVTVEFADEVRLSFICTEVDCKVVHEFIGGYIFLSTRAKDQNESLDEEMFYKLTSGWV

Sequence of talin-1 head domain (THD) (P26039 whole entry, the tested form may be a part): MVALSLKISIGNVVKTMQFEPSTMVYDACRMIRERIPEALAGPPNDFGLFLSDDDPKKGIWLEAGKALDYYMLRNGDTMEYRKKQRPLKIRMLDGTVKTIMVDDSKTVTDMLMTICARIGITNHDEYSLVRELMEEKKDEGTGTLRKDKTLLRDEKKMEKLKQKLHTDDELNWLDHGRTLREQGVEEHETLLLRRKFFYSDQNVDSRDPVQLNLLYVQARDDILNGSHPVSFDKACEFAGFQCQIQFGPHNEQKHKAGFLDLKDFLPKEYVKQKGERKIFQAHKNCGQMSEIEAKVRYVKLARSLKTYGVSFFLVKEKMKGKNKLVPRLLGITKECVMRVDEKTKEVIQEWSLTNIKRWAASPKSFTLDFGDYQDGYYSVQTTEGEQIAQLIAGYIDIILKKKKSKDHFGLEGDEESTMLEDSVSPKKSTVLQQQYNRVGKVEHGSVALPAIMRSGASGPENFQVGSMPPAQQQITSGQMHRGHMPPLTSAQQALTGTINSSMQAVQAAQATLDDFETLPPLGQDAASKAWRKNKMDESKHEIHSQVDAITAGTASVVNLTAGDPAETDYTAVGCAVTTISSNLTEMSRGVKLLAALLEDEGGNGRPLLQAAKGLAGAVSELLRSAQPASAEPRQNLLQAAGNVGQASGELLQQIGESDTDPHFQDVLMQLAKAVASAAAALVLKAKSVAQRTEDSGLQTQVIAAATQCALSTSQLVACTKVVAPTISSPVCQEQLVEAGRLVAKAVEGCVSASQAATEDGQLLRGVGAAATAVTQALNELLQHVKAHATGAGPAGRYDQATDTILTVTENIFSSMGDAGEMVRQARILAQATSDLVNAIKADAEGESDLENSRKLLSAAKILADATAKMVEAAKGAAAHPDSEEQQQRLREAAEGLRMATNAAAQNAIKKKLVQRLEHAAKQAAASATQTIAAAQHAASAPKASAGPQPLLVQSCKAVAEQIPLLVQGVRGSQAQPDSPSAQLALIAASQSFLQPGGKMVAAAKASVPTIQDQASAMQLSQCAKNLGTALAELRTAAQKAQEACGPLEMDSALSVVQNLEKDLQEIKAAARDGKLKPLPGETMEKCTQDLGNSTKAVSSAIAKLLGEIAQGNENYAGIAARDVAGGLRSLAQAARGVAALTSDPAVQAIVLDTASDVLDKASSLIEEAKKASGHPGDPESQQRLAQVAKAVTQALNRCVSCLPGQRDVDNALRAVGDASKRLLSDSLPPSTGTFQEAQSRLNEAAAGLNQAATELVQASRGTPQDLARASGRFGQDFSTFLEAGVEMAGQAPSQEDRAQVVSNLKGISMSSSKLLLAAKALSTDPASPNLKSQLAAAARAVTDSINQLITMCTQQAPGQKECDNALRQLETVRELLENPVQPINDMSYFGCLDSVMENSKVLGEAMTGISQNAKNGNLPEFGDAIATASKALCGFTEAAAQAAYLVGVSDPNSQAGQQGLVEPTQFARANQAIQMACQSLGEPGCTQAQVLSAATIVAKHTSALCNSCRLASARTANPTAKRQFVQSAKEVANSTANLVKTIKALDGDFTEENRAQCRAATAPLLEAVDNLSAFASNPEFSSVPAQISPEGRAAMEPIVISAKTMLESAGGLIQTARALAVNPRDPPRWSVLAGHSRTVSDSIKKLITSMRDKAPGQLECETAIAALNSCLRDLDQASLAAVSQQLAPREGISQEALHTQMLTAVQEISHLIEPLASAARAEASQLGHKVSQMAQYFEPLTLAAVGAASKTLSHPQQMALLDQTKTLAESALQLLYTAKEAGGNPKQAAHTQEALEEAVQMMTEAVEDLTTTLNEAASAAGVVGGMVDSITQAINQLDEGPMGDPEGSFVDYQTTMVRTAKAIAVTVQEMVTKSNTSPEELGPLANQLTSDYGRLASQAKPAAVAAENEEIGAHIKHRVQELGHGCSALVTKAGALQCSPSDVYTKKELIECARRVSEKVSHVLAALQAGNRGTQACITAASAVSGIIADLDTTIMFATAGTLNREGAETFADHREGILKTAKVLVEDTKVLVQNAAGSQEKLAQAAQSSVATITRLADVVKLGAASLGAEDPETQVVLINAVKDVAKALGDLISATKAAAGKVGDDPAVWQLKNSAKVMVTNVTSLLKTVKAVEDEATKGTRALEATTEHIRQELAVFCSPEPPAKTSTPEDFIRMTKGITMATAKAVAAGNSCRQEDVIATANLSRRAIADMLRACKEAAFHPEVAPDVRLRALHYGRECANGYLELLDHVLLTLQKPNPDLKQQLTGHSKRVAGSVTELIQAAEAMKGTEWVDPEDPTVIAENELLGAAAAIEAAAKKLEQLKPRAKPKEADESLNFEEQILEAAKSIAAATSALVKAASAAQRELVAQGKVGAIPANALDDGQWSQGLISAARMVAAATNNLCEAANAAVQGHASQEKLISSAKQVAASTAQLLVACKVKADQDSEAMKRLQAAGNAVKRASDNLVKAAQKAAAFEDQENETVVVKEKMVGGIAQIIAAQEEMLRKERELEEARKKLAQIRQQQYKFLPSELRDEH
Sequence of β1-TT/DD integrin on β1-KO fibroblasts (P09055 whole entry, looked up): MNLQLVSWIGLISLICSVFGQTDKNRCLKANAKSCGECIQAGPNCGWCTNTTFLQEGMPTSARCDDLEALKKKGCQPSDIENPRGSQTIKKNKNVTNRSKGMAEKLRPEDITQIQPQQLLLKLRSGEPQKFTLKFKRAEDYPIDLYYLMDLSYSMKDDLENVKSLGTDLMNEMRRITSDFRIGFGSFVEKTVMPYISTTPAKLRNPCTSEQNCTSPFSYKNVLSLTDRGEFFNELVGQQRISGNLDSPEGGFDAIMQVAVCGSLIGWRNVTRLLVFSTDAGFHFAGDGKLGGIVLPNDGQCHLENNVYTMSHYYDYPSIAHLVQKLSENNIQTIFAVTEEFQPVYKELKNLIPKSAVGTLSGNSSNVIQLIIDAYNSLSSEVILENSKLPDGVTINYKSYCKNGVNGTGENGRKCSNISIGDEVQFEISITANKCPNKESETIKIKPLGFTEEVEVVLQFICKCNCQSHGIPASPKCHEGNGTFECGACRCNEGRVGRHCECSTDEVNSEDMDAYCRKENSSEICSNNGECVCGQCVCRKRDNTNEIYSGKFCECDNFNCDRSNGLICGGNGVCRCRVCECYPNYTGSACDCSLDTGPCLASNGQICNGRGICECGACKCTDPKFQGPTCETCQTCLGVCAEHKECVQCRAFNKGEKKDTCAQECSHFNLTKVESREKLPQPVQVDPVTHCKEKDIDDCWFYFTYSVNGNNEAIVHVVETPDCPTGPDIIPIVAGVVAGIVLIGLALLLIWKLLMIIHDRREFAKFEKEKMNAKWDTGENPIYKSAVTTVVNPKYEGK
Sequence of β1-TT/AA integrin on β1-KO fibroblasts (P09055 whole entry, looked up): as above
Sequence of β1-TT/EE integrin on β1-KO fibroblasts (P09055 whole entry, looked up): as above

Molecule: LLQEKGGYIPSGPIpTpTIHENEVVKSPSQPG-OH [Wwc2-pTpT, unrelated peptide with a bi-phosphorylated double-threonine motif derived from the cytosolic scaffolding protein Wwc2]
- binding of the anti-β1-pTpT antibody to the immobilized peptide (in words) [1]: detected binding
- binding of the anti-β1-pTpT antibody to the immobilized peptide (in words) [2]: detected binding

Molecule: HDRREFAKFEKEKMNAKWDTGENPIAKSAVTTVVNPKYEGK [β1-Y783A]
- Kd (kindlin-2): 4.9 ± 0.7 µM

Molecule: EYEFEPDKVDTGAKGTKMAKNEKKFRNYTVHNIWESRKVAP-OH [scrambled, scrambled β1 integrin cytoplasmic tail peptide used as control, reference compound]
- SNX17 binding to the peptide (in words) (endogenous SNX17): lost
- kindlin-2 binding to the peptide (in words) (endogenous kindlin-2): lost

Molecule: KWDTGENPIYKEAVpTpTFTVDFTFNKFNPKYEGK-OH [β3/β5-pTpT, chimeric β3/β5-pTpT peptide]
- binding of the anti-β1-pTpT antibody to the immobilized peptide (in words) [1]: detected binding
- binding of the anti-β1-pTpT antibody to the immobilized peptide (in words) [2]: detected binding

Molecule: β1-TT/EE integrin on β1-KO fibroblasts (from UniProt P09055 21-798) (receptor)
- percent of binding probability experiments with multiple unbinding events (FNIII7-10^RGD): 4.6%
- percent of binding probability experiments with more than one unbinding event (FNIII7-10^ΔRGD): < 3%

Molecule: β1-TT/AA integrin on β1-KO fibroblasts (from UniProt P09055 21-798) (receptor)
- percent of binding probability experiments with multiple unbinding events (FNIII7-10^RGD): 7.7%
- percent of binding probability experiments with more than one unbinding event (FNIII7-10^ΔRGD): < 3%

Molecule: β1-WT integrin on β1-KO fibroblasts (β1-class integrins) (from UniProt P09055 21-798) (receptor)
- percent of binding probability experiments with multiple unbinding events (FNIII7-10^RGD): 32.3%
- percent of binding probability experiments with more than one unbinding event (FNIII7-10^ΔRGD): < 3%

Molecule: β1-TT/DD integrin on β1-KO fibroblasts (from UniProt P09055 21-798) (receptor)
- percent of binding probability experiments with multiple unbinding events (FNIII7-10^RGD): 3.8%
- percent of binding probability experiments with more than one unbinding event (FNIII7-10^ΔRGD): < 3%

Molecule: HDRREFAKFEKEKMNAKWDTGENPIYKSAVAAVVNPKYEGK [β1-TT/AA]
- Kd [3]: 100 ± 15 µM
- Kd (kindlin-2): 151 ± 1 µM

Molecule: endogenous kindlin-2 (from UniProt Q8CIB5 1-680) (natural protein)
- binding in percent of that to β1-WT (densitometry) [4]: 27%

Molecule: CC[C@H](C)[C@H](NC(=O)[C@@H]1CCCN1C(=O)[C@H](CC(N)=O)NC(=O)[C@H](CCC(=O)O)NC(=O)CNC(=O)[C@@H](NC(=O)[C@H](CC(=O)O)NC(=O)[C@H](Cc1c[nH]c2ccccc12)NC(=O)[C@H](CCCCN)NC(=O)[C@H](C)NC(=O)[C@H](CC(N)=O)NC(=O)[C@H](CCSC)NC(=O)[C@H](CCCCN)NC(=O)[C@H](CCC(=O)O)NC(=O)[C@H](CCCCN)NC(=O)[C@H](CCC(=O)O)NC(=O)[C@H](Cc1ccccc1)NC(=O)[C@H](CCCCN)NC(=O)[C@H](C)NC(=O)[C@H](Cc1ccccc1)NC(=O)[C@H](CCC(=O)O)NC(=O)[C@H](CCCNC(=N)N)NC(=O)[C@H](CCCNC(=N)N)NC(=O)[C@H](CC(=O)O)NC(=O)[C@@H](N)Cc1c[nH]cn1)[C@@H](C)O)C(=O)N[C@@H](Cc1ccc(O)cc1)C(=O)N[C@@H](CCCCN)C(=O)N[C@@H](CO)C(=O)N[C@@H](C)C(=O)N[C@H](C(=O)N[C@H](C(=O)N[C@H](C(=O)N[C@H](C(=O)N[C@H](C(=O)N[C@@H](CC(N)=O)C(=O)N1CCC[C@H]1C(=O)N[C@@H](CCCCN)C(=O)N[C@@H](Cc1ccc(O)cc1)C(=O)N[C@@H](CCC(=O)O)C(=O)NCC(=O)N[C@@H](CCCCN)C(=O)O)C(C)C)C(C)C)[C@@H](C)O)[C@@H](C)O)C(C)C [β1-WT]
- Kd [3]: 140 ± 20 µM

Molecule: HDRREFAKFEKEKMNAKWDTGENPIYKSAVDDVVNPKYEGK (also: Atto488 label, position not given here) [β1-TT/DD peptide, Atto488-labeled]
- Kd [5]: 170 µM

Molecule: HDRREFAKFEKEKMNAKWDTGENPIYKSAVAAVVNPKYEGK (also: Atto488 label, position not given here) [β1-TT/AA peptide, Atto488-labeled]
- Kd [5]: 100 µM
- Kd (recombinant kindlin-2): 151 µM

Molecule: HDRREFAKFEKEKMNAKWDTGENPIYKSAVTTVVNPKYEGK (also: Atto488 label, position not given here) [β1-WT peptide, Atto488-labeled]
- Kd [5]: 140 µM

Molecule: HDRREFAKFEKEKMNAKWDTGENPIYKSAV[pT][pT]VVNPKYEGK (also: Atto488 label, position not given here) [β1-pTpT peptide, Atto488-labeled]
- Kd [5]: 140 µM

Molecule: HDRREFAKFEKEKMNAKWDTGENPIAKSAVTTVVNPKYEGK (also: Atto488 label, position not given here) [β1-Y783A peptide, Atto488-labeled]
- Kd (recombinant kindlin-2): 4.9 µM
